According to article PMC3552336:

Molecular target: HA-p68 (wild type) (UniProt P17844)
Sequence of UniProt P17844 (P17844 whole entry): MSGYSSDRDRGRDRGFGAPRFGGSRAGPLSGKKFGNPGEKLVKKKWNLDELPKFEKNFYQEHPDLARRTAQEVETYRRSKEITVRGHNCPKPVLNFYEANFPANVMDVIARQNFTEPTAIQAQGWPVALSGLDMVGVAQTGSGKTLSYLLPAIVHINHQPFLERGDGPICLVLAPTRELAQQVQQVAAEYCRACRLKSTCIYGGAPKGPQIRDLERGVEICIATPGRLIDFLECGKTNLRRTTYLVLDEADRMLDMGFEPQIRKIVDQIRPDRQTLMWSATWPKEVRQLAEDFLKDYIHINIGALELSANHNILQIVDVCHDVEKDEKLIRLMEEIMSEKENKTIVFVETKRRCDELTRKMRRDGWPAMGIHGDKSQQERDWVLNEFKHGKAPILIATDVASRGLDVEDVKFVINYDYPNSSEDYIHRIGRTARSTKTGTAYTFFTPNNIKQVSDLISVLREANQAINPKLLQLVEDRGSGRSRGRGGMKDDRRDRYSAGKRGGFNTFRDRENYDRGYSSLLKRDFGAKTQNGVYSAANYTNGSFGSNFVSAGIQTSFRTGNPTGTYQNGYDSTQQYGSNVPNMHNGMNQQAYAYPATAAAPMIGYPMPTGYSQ

In the case of “Rhodamine labeled microtubule (from UniProt P02550;P02554) (complex)”, the microtubule gliding assay, p68/Ca^2+-CaM (ATP): % of gliding microtubules (n=50) is reported as 74.2%, the microtubule gliding assay, p68/Ca^2+-CaM (ATP): maximum gliding speed is reported as 0.52 µm/min and the microtubule gliding assay, p68/Ca^2+-CaM (ATP): mean gliding speed is reported as 0.16 µm/min.
